First the molecules themselves.
B1: DnaJC15J+T (domain or fragment)
chain: not shown
notes: DnaJC15, human J-protein, N-terminal truncation with the J-domain and predicted MTS (J + T), amino acids 69-146; also called hexahistidine tagged DnaJC15J+T
B2: DnaJC19J+T (domain or fragment)
chain: not shown
notes: DnaJC19, human J-protein, N-terminal truncation with the J-domain and predicted MTS (J + T), amino acids 34-112; also called hexahistidine tagged DnaJC19J+T

In assay [1] the target is T1, GST-Magmas (human, UniProt Q9Y3D7 1-125).
T1 construct: Magmas, human, full length; vector pGEX-KG; also called GST tagged Magmas; source: E. coli (C41), purified
T1 sequence (looked up): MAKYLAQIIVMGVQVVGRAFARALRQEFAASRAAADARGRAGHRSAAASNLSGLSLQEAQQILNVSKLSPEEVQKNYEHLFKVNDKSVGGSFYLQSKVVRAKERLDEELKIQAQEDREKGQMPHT
Kind of assay: pull-down; 1 μM GST alone or GST-Magmas variants held on beads, increasing concentrations of DnaJC19J+T or DnaJC15J+T, 45 min, 24 °C; 50 mM Tris-HCl pH 7.5, 100 mM KCl, 0.2% Triton-X 100, 10% glycerol, 1 mM PMSF; blocked with 0.1% BSA; SDS-PAGE, Coomassie, densitometry. Conditions: both partners purified.

The target of assay [2] is T2, GST-Magmas-1 (human, UniProt I3L3T0 1-145).
T2 construct: Magmas-1, human variant of Magmas with a unique N-terminal extension, full length; UniProt entry I3L3T0; vector pGEX-KG; also called GST tagged Magmas-1; source: E. coli (C41), purified
T2 sequence (looked up): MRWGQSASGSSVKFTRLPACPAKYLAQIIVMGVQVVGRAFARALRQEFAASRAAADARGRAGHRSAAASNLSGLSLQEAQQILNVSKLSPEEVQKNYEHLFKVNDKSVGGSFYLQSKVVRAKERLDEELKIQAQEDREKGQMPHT
Described as above. The settings on record: both partners purified.

Assay [3] has as its target B1. Kind of assay: cell-based or functional assay.
In assay [4] the target is B2. Kind of assay: cell-based or functional assay.

Sequence of DnaJC15J+T (Q9Y5T4 69-146): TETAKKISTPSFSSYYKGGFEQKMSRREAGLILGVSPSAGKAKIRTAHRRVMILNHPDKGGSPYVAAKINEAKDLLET
Sequence of DnaJC19J+T (Q96DA6 34-112): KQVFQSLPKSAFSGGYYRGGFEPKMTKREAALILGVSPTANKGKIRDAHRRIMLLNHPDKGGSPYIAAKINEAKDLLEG

Turning to B1, the binding result in assay [1] is “binds”.
For the molecule B2, the binding result in assay [1] and in assay [2] was “binds” each time.

B3: hexahistidine tagged Magmas-2 (natural protein, human, UniProt I3L1U7 1-129, looked up)
chain: MAKYLAQIIVMGVQVVGRAFARALRQEFAASRAAADARGRAGHRSAAASNLSGLSLQEAQQILNVSKLSPEEVQKNYEHLFKVNDKSVGGSFYLQSKRSGLSMLPKLISNSWPQAILLPWPPKTLGLHA
Regarding B3, the “inhibition of the DnaJC15J+T-stimulated ATP hydrolysis of mortalin, single turnover assay, Mortalin-ATP : J-protein : Magmas variant 1:2:4” value in assay [3] is over 90%. In addition, the “inhibition of the DnaJC19J+T-stimulated ATP hydrolysis of mortalin, single turnover assay, Mortalin-ATP : J-protein : Magmas variant 1:2:4” value in assay [4] is over 90%.

The record behind these values is paper PMC8605242, “Multiple variants of the human presequence translocase motor subunit Magmas govern the mitochondrial import” (The Journal of Biological Chemistry, 2021).
